# Source: patent US20090202533A1 (CSL, published 2009)
# T1: murine IL-11R on Ba/F3 cells stably transfected with murine IL-11R/gp130 (murine, UniProt Q64385 24-432)
# T1 sequence (looked up): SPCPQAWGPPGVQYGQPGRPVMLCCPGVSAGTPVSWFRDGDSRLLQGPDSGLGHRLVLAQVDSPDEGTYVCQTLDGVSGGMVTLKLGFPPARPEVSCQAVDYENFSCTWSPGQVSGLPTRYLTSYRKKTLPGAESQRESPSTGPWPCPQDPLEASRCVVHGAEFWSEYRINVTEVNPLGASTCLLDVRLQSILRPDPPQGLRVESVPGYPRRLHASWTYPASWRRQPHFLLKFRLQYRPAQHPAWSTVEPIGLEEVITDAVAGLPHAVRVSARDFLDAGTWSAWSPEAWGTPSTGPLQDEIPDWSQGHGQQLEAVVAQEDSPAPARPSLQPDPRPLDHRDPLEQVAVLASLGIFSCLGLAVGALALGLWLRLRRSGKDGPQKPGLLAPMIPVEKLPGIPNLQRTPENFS
# Tests used:
# IL-11R-Fc [1] = assay: competition ELISA on IL-11R-Fc
# IL-11R-Fc [2] = assay: IL-11R binding ELISA
# [3] = target: T1, murine IL-11R on Ba/F3 cells stably …; assay: cell-based or functional assay
Molecule,fold higher binding affinity than murine W147A IL-11 (IL-11R-Fc [1]) [fold],fold reduction of binding affinity relative to non-PEGylated mutein (IL-11R-Fc [2]) [fold],"ability to antagonize IL-11-induced Ba/F3 cell proliferation, relative to non-PEGylated mutein [3] [fold]"
"IL-11 mutein of SEQ ID NO: 1 (AMSAG at positions 58-62 of mature murine IL-11 replaced with PAIDY, tryptophan at position 147 replaced with alanine), N-terminal His-tagged (from UniProt P47873 22-199) (ligand)",20,,
"PEGylated mutein (mutein of SEQ ID NO: 3 with a single 40 kDa PEG moiety on the Cys introduced at position 147) (ligand, mPEG2-maleimide (single 40 kDa PEG moiety) on the Cys introduced at position 147 (position as printed, numbering of mature murine IL-11)) VSSDPRADLDSAVLLTRSLLADTRQLAAQMRDKFPADGDHSLDSLPTLPAIDYTLGSLQLPGVLTRLRVDLMSYLRHVQWLRRAGGPSLKTLEPELGALQARLERLLRRLQLLMSRLALPQAAPDQPVIPLGPPASACGSIRAAHAILGGLHLTLDWAVRGLLLLKTRL",,5,~10
